The record followed here is patent US7176283B1, “Protease-activated receptor 3 and uses thereof” (The Regents of the University of California, priority 1996, dated 2007).

One data set addresses T1, human PAR3 (Homo sapiens, UniProt O00254).
T1 construct: The human PAR3 cDNA used for the functional studies presented below was cloned from a Lamda gt 10 intestinal cDNA library; expressed in transfected cells; host or cells: Cos 7 cells
T1 sequence (O00254 22-374): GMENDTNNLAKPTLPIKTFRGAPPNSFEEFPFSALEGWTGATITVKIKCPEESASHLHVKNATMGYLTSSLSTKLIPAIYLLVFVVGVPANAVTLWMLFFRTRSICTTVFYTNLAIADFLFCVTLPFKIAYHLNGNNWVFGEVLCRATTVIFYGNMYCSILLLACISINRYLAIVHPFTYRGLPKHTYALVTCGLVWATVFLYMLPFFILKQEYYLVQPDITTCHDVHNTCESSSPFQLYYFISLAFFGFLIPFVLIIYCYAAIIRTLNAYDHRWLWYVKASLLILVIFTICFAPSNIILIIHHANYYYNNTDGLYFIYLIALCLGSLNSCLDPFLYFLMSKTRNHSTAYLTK
In words: Phosphoinositide hydrolysis in Cos 7 cells transfected with human PAR3. The data set is classed as cell-based. The conditions noted are these: Cos 7 cells expressing human PAR3; peptide concentrations up to 100 μM. As to the method:
PAR3 signaling in Cos 7 cells was also examined. Cos 7 cells were transfected with human PAR1 or PAR3. Cells were then metabolically labelled with ^3H-inositol and phosphoinositide hydrolysis was measured in response to the indicated concentrations of a-thrombin (FIG. 8) or γ-thrombin (FIG. 9) as described by Ishii, et al. and Nanevicz et al. (Ishii, K. et al. (1993) supra; and Nanevicz, T. et al. (1996) J. Biol. Chem. 271:702–706).
Peptides homologous to the tethered domain of PAR3 may be tested as potential agonists of PAR3 activity. Two peptides TFRGAP (SEQ NO:27) and […] (SEQ ID NO:17) were synthesized and tested for their ability to mimic the action of thrombin by causing PAR3 signaling as measured by phosphoinositide hydrolysis. Cos 7 cells expressing human PAR3 were incubated with the peptides at concentrations up to 100 μM.

Data set [1] concerns the target epitope-tagged human PAR3 (FLAG epitope fused to amino acid 17 of PAR3) (human) (UniProt O00254). Description: antibody binding to the FLAG epitope on the surface of transfected Cos 7 cells.
The subject of data set [2] is epitope-tagged human PAR3 bearing the F40A tethered ligand domain mutation.
Data set [3] deals with α-thrombin (Homo sapiens (Human)) (UniProt P00734). Description: cell-based or functional assay.
Data set [4] concerns the target human protease-activated receptor 3 (human) (UniProt O00254). Description: cell-based or functional assay.
Data set [5] concerns the target epitope-tagged human PAR3 (FLAG epitope fused to amino acid 17 of PAR3) (human) (UniProt O00254). In words: cell-based or functional assay.

“TFRGAPPNS [synthetic peptide homologous to the tethered ligand domain of PAR3]”: the “PAR3 signaling as measured by phosphoinositide hydrolysis (agonist activity)” value in the data set with human PAR3 is recorded as “no detectable signaling”.

M1 monoclonal antibody (Kodak) yielded a share of M1 antibody binding that was transfection-dependent in data set [1] above 95%.

As for α-thrombin, the “PAR3 signaling and PAR3 cleavage by thrombin” value in data set [2] is “ablated PAR3 signaling but not PAR3 cleavage by thrombin”. In the case of hirugen (peptide), the shift of the α-thrombin dose response curve for PAR3 signaling (data not shown) in data set [3] was 2 logs. γ-thrombin (enzyme) came in with an EC50, phosphoinositide hydrolysis in Cos 7 cells in data set [4] of 20 nM.

As to “thrombin rendered proteolytically inactive by the active site inhibitor PPACK (enzyme)”, the 45Ca release in Xenopus oocytes in data set [5] stood at 1 µM.

With “TFRGAP [synthetic peptide homologous to the tethered ligand domain of PAR3]”, the “PAR3 signaling as measured by phosphoinositide hydrolysis (agonist activity)” value with human PAR3 is on record as “no detectable signaling”.
